From the supplement of paper PMC7125110 come the findings set out here.

± gives the standard error. For some assays here: Variants at the floor of the assay were thinned out.

The chains are these.
B1: glmS ribozyme (parent)
chain: AUAAAAGCGCCAGAACUACAGAAAUGUAGUUGACGAGGAGGAGGUUUAUCGAAUUUUCGGCGGAUGCCUCCAAA

What all share (details): with glucosamine-6-phosphate
Variants of B1 are the subject of series [1]. The series can be described thus: kcat; higher = faster cleavage; RNA array. In short, it runs like this: (§1)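 Glucosamine-6-phosphate, from 40 μM to 10 mM in HEPES/KCl/Mg(OAc)2 buffer, was flowed over sequenced MiSeq chips carrying barcoded ribozyme variants transcribed in situ by E. coli RNA polymerase. A hybridised Cy3 probe tracked the variants at 37 °C as tiles were imaged over ~14 h. kobs, kcat and KM were obtained by fitting normalised per-tile medians to exponential decays and then applying weighted Michaelis–Menten fits across concentrations.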

Series [2] covers variants of B1. The series can be described thus: KM; higher = weaker cofactor use; RNA array. In short, it runs like this: as §1
Series [3] covers variants of B1. The series can be described thus: self-cleavage kobs at 640 uM GlcN6P; higher = faster cleavage; RNA array. In short, it runs like this:
as §1

In series [4] the parent is B1. Kind of series: self-cleavage kobs at 2500 uM GlcN6P; higher = faster cleavage; RNA array. In short, it runs like this:
as §1

In series [5] the parent is B1. The series can be described thus: self-cleavage kobs at 10000 uM GlcN6P; higher = faster cleavage; RNA array. In short, it runs like this: as §1
Variants of B1 are the subject of series [6]. Kind of series: self-cleavage kobs at 40 uM GlcN6P; higher = faster cleavage; RNA array. The method in brief:
as §1

Variants of B1 are the subject of series [7]. The series can be described thus: self-cleavage kobs at 160 uM GlcN6P; higher = faster cleavage; RNA array. In short, it runs like this:
as §1

Consider G44C, for which the kcat with glucosamine-6-phosphate [1] turned out to be 0.0002 ± 2.4e-05 s⁻¹. The KM in the series with glucosamine-6-phosphate [2] was determined as 1980 ± 570 µM. Further, the “self-cleavage kobs at 640 uM GlcN6P” value in the series with glucosamine-6-phosphate [3] was 4.33e-05 ± 1.8e-06 s⁻¹. Besides, the “self-cleavage kobs at 2500 uM GlcN6P” value in the series with glucosamine-6-phosphate [4] is 0.000127 ± 2.9e-06 s⁻¹. Moreover, the “self-cleavage kobs at 10000 uM GlcN6P” value with glucosamine-6-phosphate [5] was found to be 0.000159 ± 3.5e-06 s⁻¹.

As for U55G C58A G60C C61G C67A, the “self-cleavage kobs at 40 uM GlcN6P” value with glucosamine-6-phosphate [6] was less than 1e-05 s⁻¹.

A33C U47C: the kcat in the series with glucosamine-6-phosphate [1] stood at 4.24e-05 ± 1.3e-05 s⁻¹. Besides, in the series with glucosamine-6-phosphate [4], the “self-cleavage kobs at 2500 uM GlcN6P” value was 5.42e-05 ± 1.3e-05 s⁻¹. Further, the “self-cleavage kobs at 10000 uM GlcN6P” value with glucosamine-6-phosphate [5] stood at 3.37e-05 ± 1e-05 s⁻¹.

On to A39C G40C U47C, for which the “self-cleavage kobs at 40 uM GlcN6P” value with glucosamine-6-phosphate [6] is less than 1e-05 s⁻¹.

In the case of A39C C50U, in the series with glucosamine-6-phosphate [2], the KM was determined as 1080 ± 200 µM.

With G9C C11U U31C A36G G38A C50G U69G C70G, the “self-cleavage kobs at 40 uM GlcN6P” value with glucosamine-6-phosphate [6] stood at 0.00075 ± 0.00022 s⁻¹. Moreover, the “self-cleavage kobs at 10000 uM GlcN6P” value with glucosamine-6-phosphate [5] amounted to 0.000818 ± 0.00021 s⁻¹.

As to G38A A42U C70A, the “self-cleavage kobs at 40 uM GlcN6P” value with glucosamine-6-phosphate [6] was less than 1e-05 s⁻¹. For the same variant, the “self-cleavage kobs at 2500 uM GlcN6P” value with glucosamine-6-phosphate [4] is less than 1e-05 s⁻¹. Moreover, the “self-cleavage kobs at 10000 uM GlcN6P” value in the series with glucosamine-6-phosphate [5] was less than 1e-05 s⁻¹.

With G13U A15G G32A C70G, the kcat with glucosamine-6-phosphate [1] is 9.35e-05 ± 2.2e-06 s⁻¹. In the series with glucosamine-6-phosphate [2], the KM turned out to be 405 ± 40 µM. Further, in the series with glucosamine-6-phosphate [3], the “self-cleavage kobs at 640 uM GlcN6P” value worked out at 5.48e-05 ± 1.7e-05 s⁻¹. Also, in the series with glucosamine-6-phosphate [4], the “self-cleavage kobs at 2500 uM GlcN6P” value is 8.14e-05 ± 1.6e-05 s⁻¹. Further, the “self-cleavage kobs at 10000 uM GlcN6P” value with glucosamine-6-phosphate [5] was 8.98e-05 ± 1.9e-05 s⁻¹.

With C19A C67G, the kcat with glucosamine-6-phosphate [1] was found to be 0.000349 ± 4.1e-05 s⁻¹. In addition, in the series with glucosamine-6-phosphate [2], the KM turned out to be 295 ± 93 µM. Further, in the series with glucosamine-6-phosphate [7], the “self-cleavage kobs at 160 uM GlcN6P” value worked out at 0.000171 ± 4.8e-05 s⁻¹. In addition, the “self-cleavage kobs at 640 uM GlcN6P” value in the series with glucosamine-6-phosphate [3] came to 0.000207 ± 7.2e-05 s⁻¹. Moreover, the “self-cleavage kobs at 2500 uM GlcN6P” value in the series with glucosamine-6-phosphate [4] turned out to be 0.000309 ± 7.1e-05 s⁻¹. In addition, the “self-cleavage kobs at 10000 uM GlcN6P” value with glucosamine-6-phosphate [5] was determined as 0.000347 ± 7.3e-05 s⁻¹.

As to C11G A36C G37U G38U U49A G63C U65A, the “self-cleavage kobs at 40 uM GlcN6P” value in the series with glucosamine-6-phosphate [6] was less than 1e-05 s⁻¹. Further, the “self-cleavage kobs at 10000 uM GlcN6P” value in the series with glucosamine-6-phosphate [5] is less than 1e-05 s⁻¹.

U56G C70A: the catalytic constant (kcat) with glucosamine-6-phosphate [1] was determined as 4.56e-05 ± 9.3e-06 s⁻¹. Also, the “self-cleavage kobs at 160 uM GlcN6P” value with glucosamine-6-phosphate [7] was determined as 3.41e-05 ± 1.7e-05 s⁻¹. In the series with glucosamine-6-phosphate [3], the “self-cleavage kobs at 640 uM GlcN6P” value came out at 7.43e-05 ± 3e-05 s⁻¹. For the same variant, the “self-cleavage kobs at 2500 uM GlcN6P” value with glucosamine-6-phosphate [4] is 6.95e-05 ± 1.6e-05 s⁻¹. Also, in the series with glucosamine-6-phosphate [5], the “self-cleavage kobs at 10000 uM GlcN6P” value stood at 3.66e-05 ± 8.6e-06 s⁻¹.

Turning to G35U G37C G40U U56A U65A, the “self-cleavage kobs at 40 uM GlcN6P” value with glucosamine-6-phosphate [6] was less than 1e-05 s⁻¹.

Consider G41U G43U, for which, in the series with glucosamine-6-phosphate [6], the “self-cleavage kobs at 40 uM GlcN6P” value is less than 1e-05 s⁻¹. The “self-cleavage kobs at 640 uM GlcN6P” value with glucosamine-6-phosphate [3] was less than 1e-05 s⁻¹. Further, the “self-cleavage kobs at 2500 uM GlcN6P” value with glucosamine-6-phosphate [4] is less than 1e-05 s⁻¹. Besides, the “self-cleavage kobs at 10000 uM GlcN6P” value in the series with glucosamine-6-phosphate [5] was less than 1e-05 s⁻¹.

Turning to C8G C34U A42U, the “self-cleavage kobs at 40 uM GlcN6P” value in the series with glucosamine-6-phosphate [6] is less than 1e-05 s⁻¹.

Turning to A53G G59A, the kcat in the series with glucosamine-6-phosphate [1] was 0.000102 ± 1.3e-05 s⁻¹. Further, the KM with glucosamine-6-phosphate [2] came to 4360 ± 1300 µM. The “self-cleavage kobs at 2500 uM GlcN6P” value with glucosamine-6-phosphate [4] was determined as 3.91e-05 ± 1.5e-05 s⁻¹. In the series with glucosamine-6-phosphate [5], the “self-cleavage kobs at 10000 uM GlcN6P” value was determined as 7e-05 ± 1.9e-05 s⁻¹.

As to C16A C70G, the kcat in the series with glucosamine-6-phosphate [1] was 4.18e-05 ± 5e-06 s⁻¹. The “self-cleavage kobs at 640 uM GlcN6P” value in the series with glucosamine-6-phosphate [3] is 3.86e-05 ± 1.5e-05 s⁻¹. Moreover, the “self-cleavage kobs at 2500 uM GlcN6P” value with glucosamine-6-phosphate [4] came out at 5.28e-05 ± 1e-05 s⁻¹. In addition, the “self-cleavage kobs at 10000 uM GlcN6P” value with glucosamine-6-phosphate [5] is 3.56e-05 ± 7.5e-06 s⁻¹.

U47G U69A: the “self-cleavage kobs at 40 uM GlcN6P” value with glucosamine-6-phosphate [6] came out at 5.4e-05 ± 1.7e-05 s⁻¹. In addition, the “self-cleavage kobs at 160 uM GlcN6P” value with glucosamine-6-phosphate [7] was 7.68e-05 ± 1.4e-05 s⁻¹. Further, in the series with glucosamine-6-phosphate [3], the “self-cleavage kobs at 640 uM GlcN6P” value was found to be 7.46e-05 ± 1.4e-05 s⁻¹. For the same variant, the “self-cleavage kobs at 2500 uM GlcN6P” value in the series with glucosamine-6-phosphate [4] was determined as 0.000193 ± 3.4e-05 s⁻¹. For the same variant, the “self-cleavage kobs at 10000 uM GlcN6P” value with glucosamine-6-phosphate [5] came to 8.6e-05 ± 1.4e-05 s⁻¹.

A6G A53U: the kcat in the series with glucosamine-6-phosphate [1] was found to be 0.000303 ± 3.8e-05 s⁻¹. The KM in the series with glucosamine-6-phosphate [2] is 1940 ± 560 µM. In the series with glucosamine-6-phosphate [3], the “self-cleavage kobs at 640 uM GlcN6P” value was found to be 6.78e-05 ± 1.6e-05 s⁻¹. The “self-cleavage kobs at 2500 uM GlcN6P” value with glucosamine-6-phosphate [4] was 0.000191 ± 2.7e-05 s⁻¹. The “self-cleavage kobs at 10000 uM GlcN6P” value with glucosamine-6-phosphate [5] turned out to be 0.000241 ± 3.5e-05 s⁻¹.

As for U46G G51U U57A C70G, the “self-cleavage kobs at 40 uM GlcN6P” value with glucosamine-6-phosphate [6] is 4.37e-05 ± 1.9e-05 s⁻¹.

Regarding A33C A64C C68U, the “self-cleavage kobs at 40 uM GlcN6P” value with glucosamine-6-phosphate [6] was less than 1e-05 s⁻¹. For the same variant, the “self-cleavage kobs at 160 uM GlcN6P” value with glucosamine-6-phosphate [7] is less than 1e-05 s⁻¹. The “self-cleavage kobs at 640 uM GlcN6P” value with glucosamine-6-phosphate [3] is less than 1e-05 s⁻¹. In addition, the “self-cleavage kobs at 2500 uM GlcN6P” value in the series with glucosamine-6-phosphate [4] is less than 1e-05 s⁻¹. Also, in the series with glucosamine-6-phosphate [5], the “self-cleavage kobs at 10000 uM GlcN6P” value is less than 1e-05 s⁻¹.

On to A12U A36U G44A, for which the “self-cleavage kobs at 40 uM GlcN6P” value in the series with glucosamine-6-phosphate [6] is less than 1e-05 s⁻¹.
